Experimental findings from patent US9266964 are described below.

One experiment deals with T1, human plasma kallikrein (human, UniProt P03952 20-390; P03952 391-638).
T1 construct: two disulfide linked chains; also called pKal; human pKal
In words: Ki,app, enzyme inhibition of pKal; antibody format not stated.

A further experiment addresses T2, mouse plasma kallikrein (mouse, UniProt P26262 20-638, limits assumed).
T2 construct: also called mouse pKal
In words: apparent Ki (Ki,app), inhibition of mouse pKal enzyme activity. The procedure:
(§1) Apparent Inhibition constants (K_{i,app} values) were measured by pre-incubating enzyme and inhibitor solutions prior to initiating the reactions with substrate. Enzyme and inhibitor were pre-incubated for 2 hours at 30° C. in a 96-well plate by adding 10 μL of a 10× enzyme solution and 10 μL of 10× inhibitor solutions to 70 μL of reaction buffer. Reactions were initiated by the addition of 10 μL of a 10× concentrated stock of substrate, and were monitored at 30° C. in a fluorescence plate reader with the excitation and emission wavelengths set at 360 nm/460 nm, respectively. Kinetic data were acquired by the increase in fluorescence, and initial rates for each condition were plotted against the total inhibitor concentration. The data was fit to the following equation for tight binding inhibitors: […]

For experiment [1], the target named is T3, human plasma kallikrein (active form) (human, UniProt P03952 20-390; P03952 391-638).
T3 construct: also called pKal; human pKal
T3 sequence (P03952 20-390, chain 1 of 2): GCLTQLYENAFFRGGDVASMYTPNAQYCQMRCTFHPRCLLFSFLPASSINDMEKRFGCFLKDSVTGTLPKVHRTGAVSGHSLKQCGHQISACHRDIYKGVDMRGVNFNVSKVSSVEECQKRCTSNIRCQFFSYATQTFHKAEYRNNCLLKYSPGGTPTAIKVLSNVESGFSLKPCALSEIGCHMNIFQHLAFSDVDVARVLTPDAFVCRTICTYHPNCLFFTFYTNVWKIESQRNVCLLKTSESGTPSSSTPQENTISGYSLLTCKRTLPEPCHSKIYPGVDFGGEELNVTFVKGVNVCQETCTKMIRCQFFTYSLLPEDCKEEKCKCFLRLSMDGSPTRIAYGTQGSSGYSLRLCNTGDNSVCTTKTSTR
T3 sequence (P03952 391-638, chain 2 of 2): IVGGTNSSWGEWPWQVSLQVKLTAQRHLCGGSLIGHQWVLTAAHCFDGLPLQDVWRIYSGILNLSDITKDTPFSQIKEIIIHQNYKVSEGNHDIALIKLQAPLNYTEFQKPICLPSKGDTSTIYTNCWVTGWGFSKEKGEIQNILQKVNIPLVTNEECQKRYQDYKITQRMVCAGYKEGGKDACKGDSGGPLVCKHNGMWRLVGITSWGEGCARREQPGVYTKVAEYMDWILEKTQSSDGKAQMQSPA
In words: apparent Ki (Ki,app), inhibition of human pKal enzyme activity. How it is done:
as §1

For experiment [2], the target named is T4, pKal catalytic domain Mutant 1 (human, UniProt P03952 391-638, limits assumed).
T4 construct: domain: catalytic domain; Expressed in Pichia pastoris, purified by IMAC; not shown: His tag fusion
In words: apparent Ki (Ki,app), enzyme inhibition, pKal catalytic domain Mutant 1. How it is done:
as §1

For experiment [3], the target named is T5, pKal catalytic domain Mutant 2 (human, UniProt P03952 391-638, limits assumed).
T5 construct: domain: catalytic domain; Expressed in Pichia pastoris, purified by IMAC; not shown: His tag fusion
In words: apparent Ki (Ki,app), enzyme inhibition, pKal catalytic domain Mutant 2. How it is done:
as §1

Experiment [4] addresses T6, wild type pKal catalytic domain (human, UniProt P03952 391-638, limits assumed).
T6 construct: domain: catalytic domain; also called WT cat; Domain; not shown: His tag fusion
In words: apparent Ki (Ki,app), enzyme inhibition, wild type pKal catalytic domain. The procedure:
as §1

Experiment [5] addresses T7, pKal catalytic domain Mutant 1 (human, UniProt P03952 391-638, limits assumed).
T7 construct: domain: catalytic domain; Expressed in Pichia pastoris, purified by IMAC; not shown: His tag fusion
In words: Ki,app: enzyme inhibition, fluorescent substrate, 2 h pre-incubation at 30 C, tight-binding fit. How it is done: as §1

Experiment [6] deals with T8, wild type pKal catalytic domain (human, UniProt P03952 391-638, limits assumed).
T8 construct: domain: catalytic domain; The expression in Pichia pastoris with a His tag and IMAC purification is told of the mutants; also called WT cat; Domain; not shown: His tag fusion
Described as above. The procedure: as §1

Experiment [7] has as its target T9, human plasma kallikrein (full length, active) (human, UniProt P03952 20-390; P03952 391-638).
T9 construct: two disulfide linked polypeptides; also called Full length pKal; pKal
The description is as above. The procedure:
as §1

Experiment [8] deals with T10, pKal catalytic domain Mutant 2 (human, UniProt P03952 391-638, limits assumed).
T10 construct: domain: catalytic domain; Expressed in Pichia pastoris, purified by IMAC; not shown: His tag fusion
Described as above. The procedure: as §1

T2 sequence (P26262 20-638 limits assumed): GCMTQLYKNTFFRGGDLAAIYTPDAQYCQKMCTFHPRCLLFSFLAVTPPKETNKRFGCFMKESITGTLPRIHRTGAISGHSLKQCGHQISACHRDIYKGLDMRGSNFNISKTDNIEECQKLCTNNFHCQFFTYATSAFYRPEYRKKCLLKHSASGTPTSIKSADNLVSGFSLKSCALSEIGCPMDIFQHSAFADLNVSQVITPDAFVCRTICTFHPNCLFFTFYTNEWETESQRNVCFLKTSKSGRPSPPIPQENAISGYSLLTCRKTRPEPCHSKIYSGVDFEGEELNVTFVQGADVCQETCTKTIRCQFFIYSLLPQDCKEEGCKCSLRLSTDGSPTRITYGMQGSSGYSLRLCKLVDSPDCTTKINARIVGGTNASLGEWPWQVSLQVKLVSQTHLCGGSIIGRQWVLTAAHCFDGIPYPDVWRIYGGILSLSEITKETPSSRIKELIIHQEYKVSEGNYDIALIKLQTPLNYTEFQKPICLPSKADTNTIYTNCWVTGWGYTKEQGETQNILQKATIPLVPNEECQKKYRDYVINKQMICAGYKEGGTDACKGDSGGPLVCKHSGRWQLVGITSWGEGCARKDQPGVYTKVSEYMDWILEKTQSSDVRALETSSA
T9 sequence (P03952 20-390, chain 1 of 2): as the sequence (P03952 20-390, chain 1 of 2) above
T9 sequence (P03952 391-638, chain 2 of 2): as the sequence (P03952 391-638, chain 2 of 2) above
T1 sequence (P03952 20-390, chain 1 of 2): as the sequence (P03952 20-390, chain 1 of 2) above
T1 sequence (P03952 391-638, chain 2 of 2): as the sequence (P03952 391-638, chain 2 of 2) above

B1: X59-C07 (antibody, V domains shown)
VH: EVQLLESGGGLVQPGGSLRLSCAASGFTFSHYLMTWVRQAPGKGLEWVSYISPSGGHTIYADSVKGRFTISRDNSKNTLYLQMNSLRAEDTAVYYCARVARGIAARSRTSYFDYWGQGTLVTVSS
VL: DIQMTQSPSSLSASVGDRVTVTCRAGRSISTYVNWYQQKPGKAPKLLIYAASSLQSGVPSRFSGSRSGTDFTLTISSLQPEDFATYYCQQSQSTPYTFGQGTKLEVK
notes: Found by ROLIC light chain shuffling
On to B1, for which the Ki with human plasma kallikrein stood at 6.1 nM.

B2: X60-D01 (antibody, V domains shown)
VH: EVQLLESGGGLVQPGGSLRLSCAASGFTFSHYLMTWVRQAPGKGLEWVSYISPSGGHTIYADSVKGRFTISRDNSKNTLYLQMNSLRAEDTAVYYCARVARGIAARSRTSYFDYWGQGTLVTVSS
VL: DIQMTQSPGTLSLSPGERATLSCRASQIVSSRYLAWYQQRPGQAPRLLIYGAASRATGIPDRFSGSGSGTDFTLTISSLQAEDFATYYCQQTYSSPFTFGQGTKMEIK
notes: as for B1
For B2, the Ki with human plasma kallikrein was found to be 2 nM.

B3: X63-G10 (antibody, V domains shown)
VH: EVQLLESGGGLVQPGGSLRLSCAASGFTFSHYLMTWVRQAPGKGLEWVSYISPSGGHTIYADSVKGRFTISRDNSKNTLYLQMNSLRAEDTAVYYCARVARGIAARSRTSYFDYWGQGTLVTVSS
VL: DIQMTQSPDSLSASVGDRVTITCRASQSISNYLNWYQQKPGKAPKLLIYAASSLQSGVPSRFSGSGSGTDFTLTISGLQPEDFASYYCQQSYTSPYTFVQGTKLEIKR
notes: as for B1
B3 yielded a Ki with human plasma kallikrein of 9 nM.

B4: M160-G12 (antibody, V domains shown)
VH: EVQLLESGGGLVQPGGSLRLSCAASGFTFSHYLMTWVRQAPGKGLEWVSYISPSGGHTIYADSVKGRFTISRDNSKNTLYLQMNSLRAEDTAVYYCARVARGIAARSRTSYFDYWGQGTLVTVSS
VL: DIQMTQSPSFLSASVGDRVTITCRASQGISSYLAWYQQKPGKAPKLLIYAASTLQSGVPSRFSGSGSGTEFTLTISSLQPEDFATYYCQQLNSYPLTFGGGTKVEIK
notes: also called R84-D02
For B4, the Ki with mouse plasma kallikrein is 0.2 nM; in experiment [1] it was 5 nM.

B5: X64-F04 (antibody, V domains shown)
VH: EVQLLESGGGLVQPGGSLRLSCAASGFTFSHYLMTWVRQAPGKGLEWVSYISPSGGHTIYADSVKGRFTISRDNSKNTLYLQMNSLRAEDTAVYYCARVARGIAARSRTSYFDYWGQGTLVTVSS
VL: DIQMTQSPATLSLSPGERATLSCRASQIVSSNYLAWYQQKPGQAPRLLIYGASNRATGIPDRFSGSGSGTEFTLTISSLQSEDFAIYYCQQSFNIPYTFGQGTRVDIK
notes: as for B1
Regarding B5, the Ki with human plasma kallikrein is 1.9 nM.

B6: M6-D09 (antibody, V domains shown)
VH: EVQLLESGGGLVQPGGSLRLSCAASGFTFSFYYMVWVRQAPGKGLEWVSVIYPSGGITVYADSVKGRFTISRDNSKNTLYLQMNSLRAEDTAVYYCARDKWAVMPPYYYYAMDVWGQGTTVTVSS
VL: DIQMTQSPSSLSASVGDRVTITCRASQSIRNYLNWYQQKPGKAPNLLIYAASTLQSGVPARFSGSGSGTDFTLTISSLQPEDFATYYCQQLSGYPHTFGQGTKLEIK
notes: also called M06-D09; 559A-M06-D09
For the molecule B6, the Ki was 3.4 nM in experiment [2]; 3.9 nM with mouse plasma kallikrein; 5.9 nM in experiment [1]; 13.5 nM in experiment [3]; 2.5 nM in experiment [4].

B7: M06-D09 (antibody, V domains shown)
VH: EVQLLESGGGLVQPGGSLRLSCAASGFTFSFYYMVWVRQAPGKGLEWVSVIYPSGGITVYADSVKGRFTISRDNSKNTLYLQMNSLRAEDTAVYYCARDKWAVMPPYYYYAMDVWGQGTTVTVSS
VL: DIQMTQSPSSLSASVGDRVTITCRASQSIRNYLNWYQQKPGKAPNLLIYAASTLQSGVPARFSGSGSGTDFTLTISSLQPEDFATYYCQQLSGYPHTFGQGTKLEIK
notes: Only variable domains printed; also called M6-D09; 559A-M06-D09
Regarding B7, the Ki in [5] was 3.4 nM; in [6], 2.5 nM; in [7] it was 5.9 nM; in experiment [8] it was 13.5 nM.

B8: M35-G04 (antibody, V domains shown)
VH: EVQLLESGGGLVQPGGSLRLSCAASGFTFSYYHMSWVRQAPGKGLEWVSVISPSGGSTKYADSVKGRFTISRDNSKNTLYLQMNSLRAEDTAVYYCARGGSSDYAWGSYRRPYYFDYWGQGTLVTVSS
VL: DIQMTQSPATLSLSPGERATLSCRASQSVSSYLAWYQQKPGQAPRLLIYDASNRATGIPARFSGSGSGTDFTLTISSLEPEDFAVYYCQQRSNWPRGFTFGPGTKVDIK
notes: also called 559A-M35-G04; 559A-M0035-G04
For the molecule B8, the Ki was 0.09 nM in experiment [2]; 8 nM with mouse plasma kallikrein; 2.9 nM in experiment [1]; 1.1 nM in experiment [3]; 0.8 nM in [4].

B9: M35-G04 (antibody, V domains shown)
VH: EVQLLESGGGLVQPGGSLRLSCAASGFTFSYYHMSWVRQAPGKGLEWVSVISPSGGSTKYADSVKGRFTISRDNSKNTLYLQMNSLRAEDTAVYYCARGGSSDYAWGSYRRPYYFDYWGQGTLVTVSS
VL: DIQMTQSPATLSLSPGERATLSCRASQSVSSYLAWYQQKPGQAPRLLIYDASNRATGIPARFSGSGSGTDFTLTISSLEPEDFAVYYCQQRSNWPRGFTFGPGTKVDIK
notes: Only variable domains printed; also called 559A-M35-G04; 559A-M0035-G04
For B9, the Ki was 0.09 nM in experiment [5], 0.8 nM in experiment [6], 2.9 nM in [7] and 1.1 nM in experiment [8].

B10: M29-D09 (Fab, V domains shown)
VH: EVQLLESGGGLVQPGGSLRLSCAASGFTFSWYTMVWVRQAPGKGLEWVSYIYPSGGATFYADSVKGRFTISRDNSKNTLYLQMNSLRAEDTAVYYCAMGSYDYIWGFYSDHWGQGTLVTVSS
VL: QSALTQPPTVSVSPGQTARITCSGNKLGDKYVAWYQQKPGQSPMLVIYQDTKRPSRVSERFSGSNSANTATLSISGTQALDEADYYCQAWDSSIVIFGGGTRLTVL
notes: also called 559A-M29-D09 (sFab); 559A-M0029-D09
B10: the Ki is 0.27 nM in [2], 0.7 nM in experiment [1], 0.34 nM in [3] and 0.24 nM in experiment [4].

B11: M29-D09 (Fab, V domains shown)
VH: EVQLLESGGGLVQPGGSLRLSCAASGFTFSWYTMVWVRQAPGKGLEWVSYIYPSGGATFYADSVKGRFTISRDNSKNTLYLQMNSLRAEDTAVYYCAMGSYDYIWGFYSDHWGQGTLVTVSS
VL: QSALTQPPTVSVSPGQTARITCSGNKLGDKYVAWYQQKPGQSPMLVIYQDTKRPSRVSERFSGSNSANTATLSISGTQALDEADYYCQAWDSSIVIFGGGTRLTVL
notes: as for B10
On to B11, for which the Ki in experiment [5] is 0.27 nM; in experiment [6] it was 0.24 nM; in experiment [7], 0.7 nM; in [8], 0.34 nM.

B12: X115-G04 (antibody, V domains shown)
VH: EVQLLESGGGLVQPGGSLRLSCAASGFTFSHYIMMWVRQAPGKGLEWVSGIYSSGGITVYADSVKGRFTISRDNSKNTLYLQMNSLRAEDTAVYYCAYRRTGVPRRDEFDIWGQGTMVTVSS
VL: DIQMTQSPSTLSASVGDRVTITCRASQSISSWLAWYQQKPGKAPKLLIYKASTLESGVPSRFSGSGSGTEFTLTISSLQPDDFATYYCQQYNTYWTFGQGTKVEIK
notes: only variable domains given; also called 559A-X115-G04; 559A-X0115-G04
With B12, the Ki in experiment [5] came to 0.4 nM; in experiment [6], 0.3 nM; in [7], 0.6 nM; in experiment [8] it was 2.2 nM.

B13: M145-D11 (Fab, V domains shown)
VH: EVQLLESGGGLVQPGGSLRLSCAASGFTFSHYRMSWVRQAPGKGLEWVSSIYPSGGRTVYADSVKGRFTISRDNSKNTLYLQMNSLRAEDTAVYYCAKDKFEWRLLFRGIGNDAFDIWGQGTMVTVSS
VL: QSVLTQPPSVSVSPGQTASITCSGDKLGDKYTSWYQQRPGQSPVLVIYQDIKRPSGIPERFSGSNSGNTATLTISGTQAMDEADYYCQAWDSPNARVFGSGTKVTVL
notes: also called 559A-M145-D11 (sFab); 559A-M0145-D11
With B13, the Ki in experiment [2] turned out to be 0.23 nM; in the experiment with mouse plasma kallikrein, 800 nM; in [1], 0.79 nM; in experiment [3] it was 0.1 nM; in [4], 0.16 nM.

B14: M145-D11 (Fab, V domains shown)
VH: EVQLLESGGGLVQPGGSLRLSCAASGFTFSHYRMSWVRQAPGKGLEWVSSIYPSGGRTVYADSVKGRFTISRDNSKNTLYLQMNSLRAEDTAVYYCAKDKFEWRLLFRGIGNDAFDIWGQGTMVTVSS
VL: QSVLTQPPSVSVSPGQTASITCSGDKLGDKYTSWYQQRPGQSPVLVIYQDIKRPSGIPERFSGSNSGNTATLTISGTQAMDEADYYCQAWDSPNARVFGSGTKVTVL
notes: as for B13
Regarding B14, the Ki in experiment [5] is 0.23 nM; in experiment [6], 0.16 nM; in experiment [7], 0.79 nM; in [8] it was 0.1 nM.
